Assay results reported in US10175244B2, “Dominant negative HSP110 mutant and its use in prognosing and treating cancers” (INSERM (INSTITUT NATIONAL DE LA SANTÉ ET DE LA RECHERCHE …, priority 2011, dated 2019).

Legend:
[1] = tested on: protein aggregation induced by a heat shock; assay: HSP110 chaperone activity, protein thermolability assay; type: biochemical, mouse; details: for anti-aggregation chaperone activity: protein extracts of transfected MEF heated at 55° C. for 1 h
Experimental: FIG. 9 depicts the effect of HSP110delE9 expression on protein aggregation. Protein extracts from MEF HSF1^+/+ cells transfected with HSP70, HSP110 and/or HSP110delE9 were heated at 55° C. for 1 h. The ratio between the initial amount of soluble protein before and after heat shock allowed to the quantification of protein aggregation. Each bar is the mean value of 4 different experiments. *P<0.05.
HSP110 chaperone activity was evaluated using a protein thermolability assay. Total protein (2 mg/mL) from HSF1^−/− MEFs that had been transfected with HSP70 (positive control), HSP27 (negative control), HSP110 or Mutant HSP110 (Dc Assay Kits, Bio-Rad, France) was heated at 55° C. for 1 hour. After centrifugation to eliminate aggregated proteins, the remaining native proteins in the supernatant were quantified. The ratio between the initial amount of soluble protein and that obtained after heating allowed for the quantification of protein aggregation.
(§1) The skipping of HSP110 exon 9 is frameshift and therefore generates a premature terminaison codon in exon 10 of the HSP110delE9 mRNA. HSP110delE9 is a truncated protein that contains the N-terminal ATP binding domain but is devoid of the substrate binding domain (FIG. 3). We performed several functional assays to better understand the role of increased expression of HSP110delE9 in MSI CRC cell lines. Chaperone activity was first studied using a protein thermolability assay that measures the in vitro ability of HSP110 to block protein aggregation induced by a heat shock using Murine Embryonic Fibroblasts (MEF).

[2] = biological target: T1, HSP70 (Homo sapiens, UniProt P0DMV8); assay: Immunoprecipitation and Western-blotting, association with HSP70; type: binding; details: HCT116 cells, immunoprecipitation
T1 construct: HA; expressed in transfected cells; host or cells: HCT116
T1 sequence (P0DMV8 whole entry): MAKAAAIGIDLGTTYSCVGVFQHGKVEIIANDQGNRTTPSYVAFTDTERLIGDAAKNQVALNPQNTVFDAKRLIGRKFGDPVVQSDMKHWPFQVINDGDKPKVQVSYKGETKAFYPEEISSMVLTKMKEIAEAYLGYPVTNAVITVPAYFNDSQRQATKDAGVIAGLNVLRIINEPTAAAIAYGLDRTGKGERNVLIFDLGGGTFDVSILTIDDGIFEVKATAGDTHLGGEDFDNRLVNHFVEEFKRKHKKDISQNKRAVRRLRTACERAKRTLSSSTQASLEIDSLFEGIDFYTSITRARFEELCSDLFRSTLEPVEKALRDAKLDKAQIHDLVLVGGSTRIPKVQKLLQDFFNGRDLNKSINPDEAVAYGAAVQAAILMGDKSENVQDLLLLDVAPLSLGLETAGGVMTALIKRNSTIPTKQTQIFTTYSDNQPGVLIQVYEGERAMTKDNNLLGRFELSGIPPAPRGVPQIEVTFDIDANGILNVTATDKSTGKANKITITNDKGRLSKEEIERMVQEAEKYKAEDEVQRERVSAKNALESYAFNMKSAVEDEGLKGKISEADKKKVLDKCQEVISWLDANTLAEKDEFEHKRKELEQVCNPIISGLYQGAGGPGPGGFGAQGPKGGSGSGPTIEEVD
Experimental: (§2) Transfected cells were first lysed in lysis buffer (50 mM Hepes (pH 7.6), 150 mM NaCl, 5 mM EDTA and 0.1% NP40) followed by immunoprecipitation using GFP-tag antibody. Immunoprecipitates were separated in a 10% SDS-polyacrylamide gel and then transferred to PVDF membranes using a wet transfer apparatus (BioRad, Hercules, Califomia, USA). Membranes were first probed ovemight using primary antibodies: HA-tag antibody was from Covance (Eurogentec, Angers, France), 14-3-3 from Santa-Cruz (TebuBio, Le Perray en Yvelines, France) and GFP-tag antibody from Millipore (Molsheim, France).
as §1

[3] = biological target: T2, HSP27 (Homo sapiens, UniProt P04792); assay: Immunoprecipitation and Western-blotting, association with HSP27; type: binding; details: HCT116 cells, immunoprecipitation
T2 construct: HA; expressed in transfected cells; host or cells: HCT116
T2 sequence (P04792 whole entry): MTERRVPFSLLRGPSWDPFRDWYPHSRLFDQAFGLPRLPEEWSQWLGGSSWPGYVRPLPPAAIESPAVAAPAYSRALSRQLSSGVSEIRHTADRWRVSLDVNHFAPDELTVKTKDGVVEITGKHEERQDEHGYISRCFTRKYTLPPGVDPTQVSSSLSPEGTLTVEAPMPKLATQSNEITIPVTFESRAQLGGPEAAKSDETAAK
Experimental: as §2, §1

[4] = tested on: HSP90; assay: Immunoprecipitation and Western-blotting, association with HSP90; type: binding; details: HCT116 cells, immunoprecipitation
Experimental: as §2, §1

[5] = tested on: HCT116 cells; assay: Cell death analysis, TRAIL-induced apoptosis in transfected cells; type: cell-based, human; details: for protective (anti-apoptotic) effect against TRAIL-induced apoptosis: transfected HCT116 cells
Experimental: FIG. 11 depicts the effect of HSP110delE9 on apoptosis. HCT116 cells transfected with GFP-tagged HSP110, HSP110delE9 or an empty vector (GFP) were treated with recombinant TRAIL ligand (5 h) at the indicated doses. Apoptosis was measured by FACS analysis of caspase 3 activity.
FIG. 12 depicts the effect of increasing dose of HSP110delE9 on apoptosis. HCT116 cells transfected with GFP-tagged HSP110 and increased doses of HSP110delE9 or an empty vector (GFP) were treated with recombinant TRAIL ligand (60 ng/ml, 5 h) and the percentage of apoptosis was determined by DAPI staining (chromatin condensation).
(§3) Adherent cells were plated onto 12-well culture plates (1.5×10^5 cells/well) in complete medium. When indicated, cells were treated with TRAIL (150 ng/ml or 500 ng/ml) for 4 hours and cell death was measured by Hoechst 33342 staining (Sigma-Aldrich). Following treatment for 48 h with oxaliplatin (OxaPt, 20 and 40 μM), apoptotic cells were detected by Apo2.7 staining. Briefly, cells were harvested, washed in PBS and permeabilized with digitonin (100 mg/ml, 10 min at 4° C.). Cells were incubated with anti-Apo2.7 antibody and apoptotic cells were analyzed by flow cytometry using a LSR2 flow cytometer (Becton Dickinson, Franklin Lakes, N.J.).
(§4) A number of studies have previously described the anti-apoptotic role of HSP110. We therefore investigated the effect on apoptosis of the HSP110 truncation due to exon 9 skipping. HCT116 cells were transfected with HSP110wt or HSP110delE9 and apoptosis was triggered using the cell death factor, TRAIL (Tumor necrosis factor-related-apoptosis-inducing ligand).

[6] = tested on: denatured protein substrates; details: compared to HSC70 and HSP70; cited from earlier work
[7] = biological target: T3, HSP110wt (Homo sapiens, UniProt Q92598); assay: Immunoprecipitation and Western-blotting, association with HSP110wt; type: binding; details: HCT116 cells, immunoprecipitation
T3 construct: host or cells: HCT116
Experimental: FIG. 10 depicts the analysis of HSP110delE9 to wild-type HSP110. Cell lysates from HCT116 transfected with GFP-tagged HSP110 and/or HSP110delE9 were subjected to immunoprecipitation using HSP110 that recognizes the C-terminus of HSP110. After migration, membranes were immunoblotted with GFP antibody. Inputs: protein level in total cell lysates.
as §2
The skipping of HSP110 exon 9 is frameshift and therefore generates a premature terminaison codon in exon 10 of the HSP110delE9 mRNA. HSP110delE9 is a truncated protein that contains the N-terminal ATP binding domain but is devoid of the substrate binding domain (FIG. 3). We performed several functional assays to better understand the role of increased expression of HSP110delE9 in MSI CRC cell lines. […]

[8] = tested on: MSI (HCT116, LoVo) and MSS (SW480) CRC cell lines; assay: Cell death analysis, sensitivity of transfected CRC cell lines to anticancer agents; type: cell-based, human
Experimental: FIG. 13 depicts the pro-apoptotic effect of HSP110delE9 on tumor cells treated with a chemotherapeutic agent. HCT116 (MSI) or SW480 (MSS) cells were transfected with HSP110wt (1.5 μg) and co-transfected with two different doses (0.5 and 1 μg) of either GFP-empty vector or HSP110delE9. After treatment with oxaliplatin (Oxa, 40 μM, 48 h), apoptosis was assessed by FACS analysis. *P<0.05.
as §3, §4

[9] = tested on: MSI colon tumor cell lines; assay: Apoptosis on re-expression of HSP110delE9 (NMD experiments); type: cell-based; details: data not shown
Excerpt: The HSP110delE9 transcript contains a premature stop codon (PTC). Consequently, it is partially degraded by the NMD system in the tumor cells. […] Synthesis of chemical or biological compounds mimicking the HSP110delE9 activity in tumor cells, in particular mimicking its anti-apoptotic effect may have a major therapeutical interest in the treatment of CRCs. In the same way, the use of compounds susceptible to promote the HSP110delE9 expression in the tumor cells would be of great interest. […] Different pharmacological inhibitors of NMD are now available. They can be used to reproduce these experiments, both in vitro in different cell models and in animal models (nude mice xenografted with MSI CRC in first-line).

Row | Molecule | anti-aggregation chaperone activity [1] | association with HSP70 [2] | association with HSP27 [3] | association with HSP90 [4] | protective (anti-apoptotic) effect against TRAIL-induced apoptosis [5] | efficiency at binding and stabilizing denatured protein substrates [6] | induction of apoptosis ([5]; HCT116 cells treated with TRAIL) | effect on anti-aggregation activity of HSP110wt ([1]; HSP110delE9 added at the same time as HSP110wt) | association with HSP110wt [7] | effect on anti-apoptotic function of HSP110wt ([5]; HCT116 co-transfected with HSP110wt and increasing doses of HSP110delE9, TRAIL) | sensitization of colon cancer cells to chemotherapeutic agents ([8]; 5-fluorouracil and oxaliplatin, in vitro) | sensitivity of CRC cell lines to oxaliplatin ([8]; over-expression in HCT116, LoVo, SW480) | apoptosis on re-expression [9]
1 | HSP110wt: wild-type heat-shock 110 kDa protein, SEQ ID NO: 2 (protein, listed as Homo sapiens) MSVVGLDVGSQSCYIAVARAGGIETIANEFSDRCTPSVISFGSKNRTIGVAAKNQQITHANNTVSNFKRFHGRAFNDPFIQKEKENLSYDLVPLKNGGVGIKVMYMGEEHLFSVEQITAMLLTKLKETAENSLKKPVTDCVISVPSFFTDAERRSVLDAAQIVGLNCLRLMNDMTAVALNYGIYKQDLPSLDEKPRIVVFVDMGHSAFQVSACAFNKGKLKVLGTAFDPFLGGKNFDEKLVEHFCAEFKTKYKLDAKSKIRALLRLYQECEKLKKLMSSNSTDLPLNIECFMNDKDVSGKMNRSQFEELCAELLQKIEVPLYSLLEQTHLKVEDVSAVEIVGGATRIPAVKERIAKFFGKDISTTLNADEAVARGCALQCAILSPAFKVREFSVTDAVPFPISLIWNHDSEDTEGVHEVFSRNHAAPFSKVLTFLRRGPFELEAFYSDPQGVPYPEAKIGRFVVQNVSAQKDGEKSRVKVKVRVNTHGIFTISTASMVEKVPTEENEMSSEADMECLNQRPPENPDTDKNVQQDNSEAGTQPQVQTDAQQTSQSPPSPELTSEENKIPDADKANEKKVDQPPEAKKPKIKVVNVELPIEANLVWQLGKDLLNMYIETEGKMIMQDKLEKERNDAKNAVEEYVYEFRDKLCGPYEKFICEQDHQNFLRLLTETEDWLYEEGEDQAKQAYVDKLEELMKIGTPVKVRFQEAEERPKMFEELGQRLQHYAKIAADFRNKDEKYNHIDESEMKKVEKSVNEVMEWMNNVMNAQAKKSLDQDPVVRAQEIKTKIKELNNTCEPVVTQPKPKIESPKLERTPNGPNIDKKEEDLEDKNNFGAEPPHQNGECYPNEKNSVNMDLD | anti-aggregation activity comparable to other HSPs such as HSP70 | efficiently interacted with HSP70 | efficiently interacted | not with HSP90 | exerted a protective effect | approximately four-fold more efficient |  |  |  |  |  |  | 
2 | TRAIL: cell death factor, Tumor necrosis factor-related-apoptosis-inducing ligand, recombinant (protein, UniProt P50591 1-281, looked up, His tag, cell death factor, Tumor necrosis factor-related-apoptosis-inducing ligand, recombinant) Tumor necrosis factor ligand …: MAMMEVQGGPSLGQTCVLIVIFTVLLQSLCVAVTYVYFTNELKQMQDKYSKSGIACFLKEDDSYWDPNDEESMNSPCWQVKWQLRQLVRKMILRTSEETISTVQEKQQNISPLVRERGPQRVAAHITGTRGRSNTLSSPNSKNEKALGRKINSWESSRSGHSFLSNLHLRNGELVIHEKGFYYIYSQTYFRFQEEIKENTKNDKQMVQYIYKYTSYPDPILLMKSARNSCWSKDAEYGLYSIYQGGIFELKENDRIFVSVTNEHLIDMDHEASFFGAFLVG |  |  |  |  |  |  | induced dose dependent apoptosis |  |  |  |  |  | 
3 | HSP110delE9: truncated HSP110 protein (SEQ ID NO: 1) from mRNA lacking exon 9, devoid of the substrate binding domain (protein, listed as Homo sapiens) MSVVGLDVGSQSCYIAVARAGGIETIANEFSDRCTPSVISFGSKNRTIGVAAKNQQITHANNTVSNFKRFHGRAFNDPFIQKEKENLSYDLVPLKNGGVGIKVMYMGEEHLFSVEQITAMLLTKLKETAENSLKKPVTDCVISVPSFFTDAERRSVLDAAQIVGLNCLRLMNDMTAVALNYGIYKQDLPSLDEKPRIVVFVDMGHSAFQVSACAFNKGKLKVLGTAFDPFLGGKNFDEKLVEHFCAEFKTKYKLDAKSKIRALLRLYQECEKLKKLMSSNSTDLPLNIECFMNDKDVSGKMNRSQFEELCAELLQKIEVPLYSLLEQTHLKVEDVSAVEIVGGATRIPAVKERIAKFFGKDISTTLNADEAVARGCALQC | lost this chaperone activity | lost the ability to associate with HSP70 and HSP27 | lost the ability to associate with HSP70 and HSP27 |  | lacked the protective properties of HSP110wt |  |  | anti-aggregation activity of HSP110wt was abrogated | associated strongly with HSP110wt | able to block its anti-apoptotic function in a dose-dependent manner | caused the sensitization of colon cancer cells | increased their sensitivity to anticancer agents such as oxaliplatin | causes apoptosis of MSI colon tumor cell lines
